Reference: article doi:10.1101/2023.02.23.529489

Key:
Assay in all cases: flow cytometry on cells
[1] = molecular target: full-length human CD45RABC (human) (UniProt P08575)
[2] = molecular target: CD45RABC ECD-GFP (extracellular domain and transmembrane region of CD45RABC, phosphatase domains replaced by GFP) (human)
[3] = molecular target: CD45RO ECD-GFP (extracellular domain and transmembrane region of CD45RO, phosphatase domains replaced by GFP) (human)
[4] = molecular target: full-length human CD45RO (human) (UniProt P08575)

Question: For “sec49K-His (recombinant N-terminal ectodomain of HAdV-D64 E3/49K, residues 20-353, from insect cells) (domain or fragment)”, which EC50 [1] is on record?
Answer: 1.26 nM

Question: And the EC50 [2]?
Answer: 0.55 nM

Question: What about the EC50 [3] of the same substance?
Answer: 0.54 nM

Question: And the EC50 [4]?
Answer: 1.35 nM
